According to the Human Domainome abundance scans (Beltran et al. 2025):
± gives the uncertainty stated by the source.

B1: E3 ubiquitin-protein ligase NEDD4, residues 836 to 881; numbered along this chain, P46934 (parent)
chain: EIEQGFLPKGWEVRHAPNGRPFFIDHNTKTTTWEDPRLKIPAHLRG
B2: POU domain, class 2, transcription factor 1, residues 285 to 354; numbered along this chain, P14859 (parent)
chain: LEELEQFAKTFKQRRIKLGFTQGDVGLAMGKLYGNDFSQTTISRFEALNLSFKNMCKLKPLLEKWLNDAE

Variants of: B1
Experiment: abundance fitness (aPCA) (normalised: wild type 0, dead -1); higher = more abundant; growth selection in yeast, the domain comes from the species named
Details: Homo sapiens

Abundance fitness of substitutions, site by site:
K39: M -0.101 ± 0.065 | V -0.201 ± 0.045 | H -0.355 ± 0.075 | D -0.241 ± 0.086 | C 0.32 ± 0.072 | G -0.065 ± 0.039 | Q -0.372 ± 0.092 | Y -0.319 ± 0.093 | T -0.023 ± 0.064 | R 0.003 ± 0.051 | F -0.421 ± 0.066 | A -0.085 ± 0.046 | L -0.144 ± 0.046 | E 0.062 ± 0.058 | W -0.298 ± 0.038 | S -0.098 ± 0.037 | I -0.297 ± 0.038
H43: A -0.105 ± 0.054 | C -0.22 ± 0.053 | I -0.156 ± 0.04 | D -0.177 ± 0.087 | Q 0.007 ± 0.048 | P 0.094 ± 0.064 | Y -0.041 ± 0.1 | S 0.019 ± 0.032 | W -0.311 ± 0.075 | L -0.107 ± 0.038 | V -0.052 ± 0.047 | G -0.078 ± 0.046 | N -0.084 ± 0.063 | R -0.195 ± 0.037 | E 0.105 ± 0.058 | K -0.04 ± 0.054 | T 0.059 ± 0.059 | M -0.251 ± 0.059 | F -0.232 ± 0.055
P41: D -0.16 ± 0.065 | V -0.141 ± 0.042 | R -0.117 ± 0.041 | W -0.49 ± 0.084 | T -0.158 ± 0.078 | H 0.051 ± 0.088 | N 0.005 ± 0.049 | S -0.139 ± 0.064 | G -0.423 ± 0.047 | F -0.57 ± 0.15 | M -0.353 ± 0.062 | Y -0.607 ± 0.14 | L -0.469 ± 0.05 | E -0.167 ± 0.069 | I 0.029 ± 0.082 | A -0.078 ± 0.033 | Q -0.32 ± 0.087 | K -0.08 ± 0.066
R45: F -0.174 ± 0.079 | E 0.153 ± 0.069 | Q -0.11 ± 0.091 | S -0.131 ± 0.054 | C 0.019 ± 0.067 | A -0.005 ± 0.061 | W -0.202 ± 0.078 | T -0.074 ± 0.041 | K -0.016 ± 0.059 | G 0.005 ± 0.041 | N 0.017 ± 0.037 | V -0.055 ± 0.049 | H 0.104 ± 0.076 | Y -0.072 ± 0.041 | D 0.104 ± 0.037 | I -0.454 ± 0.1 | L -0.182 ± 0.045 | P 0.006 ± 0.058
G46: A -0.249 ± 0.26 | D -0.088 ± 0.16 | S -0.002 ± 0.094
I40: Y -0.27 ± 0.063 | H -0.17 ± 0.084 | S 0.009 ± 0.056 | L -0.042 ± 0.053 | W -0.055 ± 0.045 | P -0.335 ± 0.15 | G 0.028 ± 0.036 | D -0.193 ± 0.1 | V -0.007 ± 0.054 | E -0.233 ± 0.1 | Q 0.085 ± 0.072 | K 0.095 ± 0.07 | N -0.154 ± 0.11 | F -0.239 ± 0.062 | T 0.04 ± 0.072 | R -0.018 ± 0.058 | M -0.026 ± 0.069 | A 0.002 ± 0.043 | C -0.343 ± 0.11
L44: N -0.34 ± 0.089 | K -0.154 ± 0.072 | Q 0.033 ± 0.063 | W -0.188 ± 0.051 | I -0.053 ± 0.045 | A 0.08 ± 0.047 | T -0.027 ± 0.033 | S -0.001 ± 0.056 | R -0.221 ± 0.042 | F -0.423 ± 0.069 | Y -0.172 ± 0.039 | E -0.07 ± 0.049 | M -0.002 ± 0.081 | G 0.056 ± 0.032 | C 0.004 ± 0.041 | H 0.116 ± 0.069 | D 0.116 ± 0.065 | P 0.119 ± 0.068
L38: P -0.072 ± 0.043 | N -0.166 ± 0.084 | I -0.043 ± 0.062 | Y -0.435 ± 0.11 | G -0.018 ± 0.034 | Q -0.091 ± 0.063 | M -0.066 ± 0.066 | T 0.033 ± 0.07 | V -0.051 ± 0.041 | R -0.012 ± 0.033 | H -0.292 ± 0.086 | K -0.105 ± 0.085 | W -0.105 ± 0.062 | S -0.019 ± 0.053
A42: Y -0.252 ± 0.085 | V -0.128 ± 0.035 | F -0.223 ± 0.11 | W -0.316 ± 0.13 | Q 0.02 ± 0.046 | P -0.075 ± 0.074 | T -0.22 ± 0.08 | L -0.147 ± 0.042 | I -0.398 ± 0.1 | E 0.027 ± 0.058 | R -0.273 ± 0.074 | C -0.135 ± 0.047 | K -0.092 ± 0.052 | N -0.015 ± 0.043 | M -0.181 ± 0.096 | S -0.092 ± 0.057 | H -0.086 ± 0.11 | G -0.013 ± 0.04 | D -0.111 ± 0.04

Variants of: B2
Experiment: as above
Details: Homo sapiens

Abundance fitness of substitutions, site by site:
Q13: C -0.235 ± 0.089 | E -0.01 ± 0.057 | A -0.02 ± 0.093 | T 0.023 ± 0.037 | Y 0.011 ± 0.1 | M -0.024 ± 0.022 | L -0.005 ± 0.017 | P -0.202 ± 0.065 | W -0.188 ± 0.035 | R -0.061 ± 0.042 | K 0.042 ± 0.056 | H 0.015 ± 0.11 | S -0.005 ± 0.027 | V -0.014 ± 0.023 | I -0.121 ± 0.07 | F -0.054 ± 0.05 | N -0.049 ± 0.14
L4: V -0.145 ± 0.14 | F -0.483 ± 0.16 | M -0.022 ± 0.23 | S -0.263 ± 0.21
A8: W -0.528 ± 0.041 | D -0.968 ± 0.13 | H -0.499 ± 0.064 | Q -0.283 ± 0.045 | R -0.154 ± 0.021 | K -0.72 ± 0.076 | T 0.004 ± 0.033 | M -0.205 ± 0.042 | F -0.602 ± 0.063 | S -0.082 ± 0.03 | I -0.008 ± 0.054 | N -0.625 ± 0.14 | C -0.05 ± 0.038 | L -0.252 ± 0.029 | V 0.01 ± 0.028 | P -0.447 ± 0.031
T10: Q -0.012 ± 0.04 | M -0.052 ± 0.029 | R -0.038 ± 0.026 | N 0.004 ± 0.065 | F 0.023 ± 0.039 | E 0.04 ± 0.041 | L -0.013 ± 0.019 | V -0.059 ± 0.02 | G -0.047 ± 0.026 | P -0.945 ± 0.073 | K -0.014 ± 0.037 | Y -0.063 ± 0.06 | S -0.027 ± 0.025 | H 0.019 ± 0.063 | D -0.08 ± 0.059 | I 0.01 ± 0.061 | C -0.041 ± 0.036
Q6: E 0.034 ± 0.055 | F -0.059 ± 0.041 | P -0.245 ± 0.031 | A 0.015 ± 0.049 | I -0.009 ± 0.051 | D -0.086 ± 0.09 | Y -0.03 ± 0.05 | V -0.076 ± 0.031 | N 0.074 ± 0.071 | S -0.017 ± 0.026 | H -0.001 ± 0.025 | K 0.034 ± 0.03 | G -0.012 ± 0.051 | W -0.058 ± 0.032 | M -0.038 ± 0.021 | T 0.025 ± 0.04 | L -0.031 ± 0.019
E3: Q -0.078 ± 0.034 | Y -0.186 ± 0.047 | P -0.569 ± 0.043 | K -0.137 ± 0.035 | W -0.305 ± 0.042 | A -0.143 ± 0.05 | S -0.105 ± 0.024 | N -0.07 ± 0.078 | H -0.036 ± 0.044 | V -0.118 ± 0.033 | T -0.146 ± 0.031 | F -0.159 ± 0.039 | R -0.207 ± 0.036 | I -0.117 ± 0.063 | C -0.202 ± 0.046 | M -0.089 ± 0.027 | G -0.201 ± 0.063
L1: A -0.201 ± 0.22 | I -0.003 ± 0.17 | V -0.026 ± 0.058 | N -0.074 ± 0.096 | W -0.02 ± 0.051 | M 0.073 ± 0.06 | D -0.145 ± 0.15 | K 0.001 ± 0.11 | F 0.007 ± 0.044 | R 0.142 ± 0.12 | C -0.065 ± 0.34 | S -0.055 ± 0.28 | E -0.124 ± 0.11 | Y 0.13 ± 0.15
F7: M -0.263 ± 0.26 | C -0.011 ± 0.13 | L -0.297 ± 0.14 | I -0.298 ± 0.17 | A -0.355 ± 0.18 | V 0.191 ± 0.27 | G -0.07 ± 0.28 | R -0.437 ± 0.11 | W 0.123 ± 0.29 | S -0.324 ± 0.088
R14: F -0.32 ± 0.068 | L -0.105 ± 0.034 | H -0.156 ± 0.066 | C -0.233 ± 0.12 | G -0.067 ± 0.046 | K 0.004 ± 0.089 | A -0.048 ± 0.036 | E 0.028 ± 0.055
K12: Y -0.157 ± 0.033 | I -0.007 ± 0.04 | H -0.084 ± 0.039 | W -0.364 ± 0.033 | L -0.156 ± 0.02 | G -0.146 ± 0.027 | N -0.107 ± 0.038 | C -0.041 ± 0.028 | R 0.015 ± 0.033 | M -0.062 ± 0.032 | A 0.006 ± 0.026 | F -0.307 ± 0.032 | S -0.044 ± 0.024 | P -0.085 ± 0.049 | T -0.012 ± 0.03 | E -0.046 ± 0.036 | V -0.05 ± 0.024
E2: G -0.303 ± 0.1 | F -0.009 ± 0.036 | I -0.029 ± 0.06 | N 0.109 ± 0.072 | C -0.152 ± 0.051 | T -0.158 ± 0.032 | D -0.013 ± 0.17 | R -0.013 ± 0.03 | K 0.053 ± 0.037 | Y -0.046 ± 0.057 | V -0.067 ± 0.045 | W -0.043 ± 0.029 | M -0.012 ± 0.026 | P -0.178 ± 0.039 | S -0.057 ± 0.031 | Q -0.043 ± 0.037 | H -0.175 ± 0.057
E5: H -0.116 ± 0.077 | D -0.072 ± 0.05 | F -0.13 ± 0.046 | K -0.017 ± 0.04 | R -0.034 ± 0.024 | C -0.114 ± 0.037 | G -0.019 ± 0.021 | N -0.059 ± 0.059 | M -0.028 ± 0.037 | T -0.004 ± 0.041 | Y -0.071 ± 0.054 | I -0.1 ± 0.08 | L -0.022 ± 0.022 | A -0.022 ± 0.026 | P -0.571 ± 0.075 | Q -0.125 ± 0.053 | S -0.039 ± 0.031
K9: R 0.011 ± 0.015
F11: C -0.11 ± 0.045 | Q -1.11 ± 0.16 | N -1.09 ± 0.093 | A -0.166 ± 0.029 | E -1.12 ± 0.12 | S -0.206 ± 0.035 | D -1.19 ± 0.48 | M -0.166 ± 0.037 | G -0.848 ± 0.034 | I -0.402 ± 0.048 | L -0.147 ± 0.023 | P -1.04 ± 0.1 | Y -0.238 ± 0.12 | W -0.105 ± 0.027 | V -0.239 ± 0.024 | R -0.955 ± 0.042 | K -1.09 ± 0.15
